Blank lines part the entries; values can stand above or below the molecule they belong to.
B5: soluble TorC (heme-containing, holo-TorC) (natural protein, E. coli, UniProt P33226 21-390, looked up)
chain: VAIGIVIGIALIVLPHVGIKVTSTTEFCVSCHSMQPVYEEYKQSVHFQNASGVRAECHDCHIPPDIPGMVKRKLEASNDIYQTFIAHSIDTPEKFEAKRAELAEREWARMKENNSATCRSCHNYDAMDHAKQHPEAARQMKVAAKDNQSCIDCHKGIAHQLPDMSSGFRKQFDELRASANDSGDTLYSIDIKPIYAAKGDKEASGSLLPASEVKVLKRDGDWLQIEITGWTESAGRQRVLTQFPGKRIFVASIRGDVQQQVKTLEKTTVADTNTEWSKLQATAWMKKGDMVNDIKPIWAYADSLYNGTCNQCHGAPEIAHFDANGWIGTLNGMIGFTSLDKREERTLLKYLQMNASDTAGKAHGDKKEEK
modifications: heme c at the five CXXCH motifs (iron saturation about 75% of five hemes)
notes: TorC, pentahemic c-type cytochrome of E. coli, lacking the N-terminal 20 amino acid membrane anchor (first 60 nucleotides of the gene deleted); also called soluble periplasmic TorC; source: E. coli HM125 with pTorC-SS and pEC86 (ccmABCDEFGH), hemin added, purified (Ni-NTA, gel filtration)

Assays:
[1] = biological target: T1, soluble TorC (Escherichia coli, UniProt P33226); assay: UV-visible spectroscopy, reduction of TorC; assay type: biochemical; settings: electron donor, anaerobic
T1 construct: expressed in E. coli HM125 with ccmABCDEFGH; 43 kDa monomer

[2] = biological target: TorA (Escherichia coli) (UniProt P33225); settings: cited from earlier work
[3] = biological target: T2, TorA (TMAO reductase) (E. coli, UniProt P33225 40-848); assay: SEC; TorA co-purified with TorD (plasmid pTorAD); TorAD2 complex of 136.5 kDa on analytical gel filtration; settings: partners not purified
T2 construct: TorA, TMAO reductase of E. coli, with bis-MGD cofactor; Named only 'TorA' in the crosslinking, the activity assay and the crystal structure; the preparation may have held TorD; source: purified following published procedures [31]
T2 sequence: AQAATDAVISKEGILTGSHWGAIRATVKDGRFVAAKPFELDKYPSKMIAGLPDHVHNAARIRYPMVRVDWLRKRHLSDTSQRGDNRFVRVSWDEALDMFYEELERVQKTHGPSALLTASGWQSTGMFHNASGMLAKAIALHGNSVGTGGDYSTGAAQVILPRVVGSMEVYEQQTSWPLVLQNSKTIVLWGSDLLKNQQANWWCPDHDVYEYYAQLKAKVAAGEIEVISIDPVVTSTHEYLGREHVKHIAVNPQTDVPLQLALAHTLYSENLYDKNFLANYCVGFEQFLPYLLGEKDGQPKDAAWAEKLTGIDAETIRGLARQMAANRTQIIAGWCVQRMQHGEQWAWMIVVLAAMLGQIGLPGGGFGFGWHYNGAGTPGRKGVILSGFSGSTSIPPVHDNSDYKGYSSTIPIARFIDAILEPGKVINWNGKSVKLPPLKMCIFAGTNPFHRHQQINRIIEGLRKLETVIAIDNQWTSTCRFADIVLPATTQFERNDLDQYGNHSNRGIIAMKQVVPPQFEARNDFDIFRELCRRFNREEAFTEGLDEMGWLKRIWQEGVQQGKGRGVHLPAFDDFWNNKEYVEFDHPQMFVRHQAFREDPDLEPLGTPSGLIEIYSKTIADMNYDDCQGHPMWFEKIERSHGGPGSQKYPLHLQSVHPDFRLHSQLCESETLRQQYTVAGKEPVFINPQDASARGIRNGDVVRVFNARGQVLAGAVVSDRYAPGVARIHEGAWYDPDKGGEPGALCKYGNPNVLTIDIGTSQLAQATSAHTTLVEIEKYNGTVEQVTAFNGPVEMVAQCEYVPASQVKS

[4] = biological target: B5; assay: SPR; Biacore T200, CM5 chip, target immobilised via amine coupling, 25 °C, 30 µL/min, 20 mM phosphate, 150 mM NaCl, 0.005% Tween 20, pH 7.4; global fit, 1:1 binding; mean of three measurements; settings: both partners purified
[5] = biological target: T3, apo-TorC (soluble TorC without hemes) (E. coli, UniProt P33226 21-390); assay: as above; settings: both partners purified
T3 construct: TorC of E. coli lacking the N-terminal 20 amino acid membrane anchor, made without heme insertion; also called soluble apo-TorC; source: E. coli, 'soluble torC' gene expressed without the ccm gene cluster (pEC86) and without hemin, purified
T3 sequence (looked up): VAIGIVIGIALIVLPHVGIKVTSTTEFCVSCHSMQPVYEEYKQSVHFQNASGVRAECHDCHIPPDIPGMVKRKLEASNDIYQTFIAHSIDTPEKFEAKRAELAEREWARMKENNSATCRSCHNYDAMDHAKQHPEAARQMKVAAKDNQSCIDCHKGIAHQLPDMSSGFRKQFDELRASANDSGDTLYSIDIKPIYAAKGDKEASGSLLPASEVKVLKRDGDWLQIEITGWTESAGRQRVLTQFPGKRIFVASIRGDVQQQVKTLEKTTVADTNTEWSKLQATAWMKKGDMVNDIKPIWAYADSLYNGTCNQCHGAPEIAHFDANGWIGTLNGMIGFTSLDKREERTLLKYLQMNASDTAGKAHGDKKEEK

[6] = substrate: C[N+](C)(C)[O-]; assay: GC-MS of derivatized TMA; assay type: biochemical, Escherichia coli; settings: 5 µM menadiol as electron donor via soluble TorC, 100 mM Sörensen buffer pH 6.5, 37 °C, anaerobic
Source text: GC-MS of derivatized TMA on TorA with soluble TorC (physiological electron transfer assay)

[7] = substrate: C[N+](C)(C)[O-]; assay: purified protein; assay type: biochemical, Escherichia coli; settings: 400 µM benzyl viologen (dithionite-reduced), 100 mM Sörensen buffer pH 6.5, 37 °C, anaerobic, 3 nM TorA
[8] = biological target: T2, TorA (TMAO reductase); assay: cell-based or functional assay
[9] = biological target: TorAD2 (TorA purified in a 1:2 stoichiometry with TorD) (E. coli) (UniProt P33225); assay: SPR; Biacore T200, CM5 chip, target immobilised via amine coupling, 25 °C, 30 µL/min, 20 mM phosphate, 150 mM NaCl, 0.005% Tween 20, pH 7.4; global fit, 1:1 binding; mean of three measurements
[10] = biological target: TorAD2 (TorA purified in a 1:2 stoichiometry with TorD) (E. coli) (UniProt P33225); assay: MST; Monolith NT.115, TorAD2 labelled with NT-647-NHS at constant concentration (5 nM), soluble TorC titrated, 25 °C, premium capillaries
[11] = biological target: T4, apo-TorA (E. coli, UniProt P33225 40-848); assay: SPR; Biacore T200, CM5 chip, target immobilised via amine coupling, 25 °C, 30 µL/min, 20 mM phosphate, 150 mM NaCl, 0.005% Tween 20, pH 7.4; global fit, 1:1 binding; mean of three measurements; settings: both partners purified
T4 construct: TorA, TMAO reductase of E. coli, apo form; Apo form (without cofactor); source: purified following published procedures [31]
T4 sequence: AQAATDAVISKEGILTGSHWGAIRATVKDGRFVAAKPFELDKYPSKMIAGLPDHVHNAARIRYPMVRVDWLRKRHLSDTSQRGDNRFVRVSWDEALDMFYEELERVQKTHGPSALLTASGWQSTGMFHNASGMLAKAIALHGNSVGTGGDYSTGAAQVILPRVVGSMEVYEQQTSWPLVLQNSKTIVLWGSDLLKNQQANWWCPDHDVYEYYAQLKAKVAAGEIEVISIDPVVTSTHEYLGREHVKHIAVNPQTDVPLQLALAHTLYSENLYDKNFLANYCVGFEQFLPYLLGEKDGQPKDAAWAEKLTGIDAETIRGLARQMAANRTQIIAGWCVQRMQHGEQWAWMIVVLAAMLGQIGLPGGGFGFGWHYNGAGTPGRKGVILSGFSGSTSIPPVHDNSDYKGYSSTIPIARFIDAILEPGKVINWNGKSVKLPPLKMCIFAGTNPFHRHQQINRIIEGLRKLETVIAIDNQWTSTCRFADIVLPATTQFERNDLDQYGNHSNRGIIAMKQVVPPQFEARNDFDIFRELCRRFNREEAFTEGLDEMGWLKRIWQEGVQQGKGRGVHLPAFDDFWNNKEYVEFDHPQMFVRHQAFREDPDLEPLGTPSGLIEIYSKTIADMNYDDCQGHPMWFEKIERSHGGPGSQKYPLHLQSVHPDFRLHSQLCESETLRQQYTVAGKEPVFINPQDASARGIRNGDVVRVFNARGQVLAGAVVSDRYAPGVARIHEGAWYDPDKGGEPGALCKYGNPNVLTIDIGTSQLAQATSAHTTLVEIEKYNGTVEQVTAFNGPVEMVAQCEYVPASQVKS

Molecule: Cc1cc(O)c2ccccc2c1O [menadiol]
UV-visible spectroscopy, reduction of TorC [1]: menadiol can reduce soluble TorC, which can be re-oxidized by TorA

Molecule: TorC TorCN (from UniProt P33226)
Kd [2]: 45 nM

stoichiometry N [3]: 2 TorD per TorA
B1: TorD (natural protein, E. coli, UniProt P36662 1-199, looked up)
chain: MTTLTAQQIACVYAWLAQLFSRELDDEQLTQIASAQMAEWFSLLKSEPPLTAAVNELENRIATLTVRDDARLELAADFCGLFLMTDKQAALPYASAYKQDEQEIKRLLVEAGMETSGNFNEPADHLAIYLELLSHLHFSLGEGTVPARRIDSLRQKTLTALWQWLPEFVARCRQYDSFGFYAALSQLLLVLVECDHQNR
notes: source: co-expressed from plasmid pTorAD and co-purified with TorA

Kd [4]: 1030 nM | Kd [5]: 943 nM
B2: TorSN (periplasmic detection domain of TorS) (domain or fragment, E. coli, UniProt P39453 30-332, looked up)
chain: NLRFISQVEKDNTQALIPTMNMARQLSEASAWELFAAQNLTSADNEKMWQAQGRMLTAQSLKINALLQALREQGFDTTAIEQQEQEISRSLRQQGELVGQRLQLRQQQQQLSQQIVAAADEIARLAQGQANNATTSAGATQAGIYDLIEQDQRQAAESALDRLIDIDLEYVNQMNELRLSALRVQQMVMNLGLEQIQKNAPTLEKQLNNAVKILQRRQIRIEDPGVRAQVATTLTTVSQYSDLLALYQQDSEISNHLQTLAQNNIAQFAQFSSEVSQLVDTIELRNQHGLAHLEKASARGQYS
notes: TorS, sensor histidine kinase of E. coli, periplasmic detection domain; also called periplasmic TorS; source: from plasmid pET-Sp (pET21), purified following published procedures [7]

B3: TorA with soluble TorC (physiological electron transfer assay) (Escherichia coli K-12) (protein)
chain: AQAATDAVISKEGILTGSHWGAIRATVKDGRFVAAKPFELDKYPSKMIAGLPDHVHNAARIRYPMVRVDWLRKRHLSDTSQRGDNRFVRVSWDEALDMFYEELERVQKTHGPSALLTASGWQSTGMFHNASGMLAKAIALHGNSVGTGGDYSTGAAQVILPRVVGSMEVYEQQTSWPLVLQNSKTIVLWGSDLLKNQQANWWCPDHDVYEYYAQLKAKVAAGEIEVISIDPVVTSTHEYLGREHVKHIAVNPQTDVPLQLALAHTLYSENLYDKNFLANYCVGFEQFLPYLLGEKDGQPKDAAWAEKLTGIDAETIRGLARQMAANRTQIIAGWCVQRMQHGEQWAWMIVVLAAMLGQIGLPGGGFGFGWHYNGAGTPGRKGVILSGFSGSTSIPPVHDNSDYKGYSSTIPIARFIDAILEPGKVINWNGKSVKLPPLKMCIFAGTNPFHRHQQINRIIEGLRKLETVIAIDNQWTSTCRFADIVLPATTQFERNDLDQYGNHSNRGIIAMKQVVPPQFEARNDFDIFRELCRRFNREEAFTEGLDEMGWLKRIWQEGVQQGKGRGVHLPAFDDFWNNKEYVEFDHPQMFVRHQAFREDPDLEPLGTPSGLIEIYSKTIADMNYDDCQGHPMWFEKIERSHGGPGSQKYPLHLQSVHPDFRLHSQLCESETLRQQYTVAGKEPVFINPQDASARGIRNGDVVRVFNARGQVLAGAVVSDRYAPGVARIHEGAWYDPDKGGEPGALCKYGNPNVLTIDIGTSQLAQATSAHTTLVEIEKYNGTVEQVTAFNGPVEMVAQCEYVPASQVKS
notes: recombinant TorA plus soluble TorC (first 20 residues, membrane anchor, deleted); with Cytochrome c-type protein TorC
Km [6]: 9.8 ± 2.53 µM | kcat [6]: 0.145 ± 0.05 s⁻¹

B4: TorA (TMAO reductase) (Escherichia coli K-12) (protein)
chain: AQAATDAVISKEGILTGSHWGAIRATVKDGRFVAAKPFELDKYPSKMIAGLPDHVHNAARIRYPMVRVDWLRKRHLSDTSQRGDNRFVRVSWDEALDMFYEELERVQKTHGPSALLTASGWQSTGMFHNASGMLAKAIALHGNSVGTGGDYSTGAAQVILPRVVGSMEVYEQQTSWPLVLQNSKTIVLWGSDLLKNQQANWWCPDHDVYEYYAQLKAKVAAGEIEVISIDPVVTSTHEYLGREHVKHIAVNPQTDVPLQLALAHTLYSENLYDKNFLANYCVGFEQFLPYLLGEKDGQPKDAAWAEKLTGIDAETIRGLARQMAANRTQIIAGWCVQRMQHGEQWAWMIVVLAAMLGQIGLPGGGFGFGWHYNGAGTPGRKGVILSGFSGSTSIPPVHDNSDYKGYSSTIPIARFIDAILEPGKVINWNGKSVKLPPLKMCIFAGTNPFHRHQQINRIIEGLRKLETVIAIDNQWTSTCRFADIVLPATTQFERNDLDQYGNHSNRGIIAMKQVVPPQFEARNDFDIFRELCRRFNREEAFTEGLDEMGWLKRIWQEGVQQGKGRGVHLPAFDDFWNNKEYVEFDHPQMFVRHQAFREDPDLEPLGTPSGLIEIYSKTIADMNYDDCQGHPMWFEKIERSHGGPGSQKYPLHLQSVHPDFRLHSQLCESETLRQQYTVAGKEPVFINPQDASARGIRNGDVVRVFNARGQVLAGAVVSDRYAPGVARIHEGAWYDPDKGGEPGALCKYGNPNVLTIDIGTSQLAQATSAHTTLVEIEKYNGTVEQVTAFNGPVEMVAQCEYVPASQVKS
notes: recombinant from plasmid pTorAD (torAD in pJF119EH), expressed in E. coli; bis-MGD enzyme; monomer; also purified as TorAD2 complex; first 48 and last 5-10 residues not seen in crystal
Km [7]: 22.06 ± 0.75 µM | kcat [7]: 228 ± 46.3 s⁻¹

Molecule: B5
kcat of TMAO reduction by TorA with menadiol and soluble TorC as electron donors (TMA quantified by GC-MS) [8]: 0.145 s⁻¹ | Kd [9]: 309 nM | Kd [10]: 1070 nM | Kd [11]: 266 nM

Source: PMC11727998, “Purification and Electron Transfer from Soluble c-Type Cytochrome TorC to TorA for Trimethylamine N-Oxide Reduction” (International Journal of Molecular Sciences, 2024)
